Test results from the nanobody polyreactivity screen of Harvey et al. (2022).

Experiment: yeast display, Sf9 membrane polyspecificity reagent, FACS + sequencing; frameworks hold sequencing errors
Procedure, shortened: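 A synthetic nanobody library was expressed on Saccharomyces cerevisiae BJ5465 by galactose induction for 36–48 hours. The library was stained for 1 hour at 4 °C with 10% biotinylated, detergent-solubilized Sf9 membrane reagent and enriched with streptavidin microbeads before FACS. Low and high (top ~1%) gates were set on anti-HA fluorescence for expression and streptavidin fluorescence for reagent binding, and each polyreactivity label reflects the gate of origin.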

Row | Sequence | polyreactivity (PSR sort gate)
1 | QVQLVESGGGLVQAGGSLSLICAASGRIYYRYHMGWYRQAPGKERELVATISRSGGSTNYADSVKGRFTISRDNAKNTVYLQMNSLNPEYTAVYYCNALYLSTRSGDYWGQGTQVTVSS | high polyreactivity
2 | QVQLVESGGGLVQAGGSLSLICAASGSTSYRYAMGWYRQAPGKERELVAGITRSGGSTYYADSVKGRFTISRDNAKNTVYLQMNSLKPEDTAVYYCAAYYSRQYVGYGYWGQGTQVTVSS | high polyreactivity
3 | QVQLVESGGGLVQAGGSLSLICAASRLTFYLYAMGWYRQAPGKERELLAAISYSGGSTYYADSVKGRFTISRDNAKNTVYLQMNSLKPEDTAVYYCNALRAGTDSRRTYGSTYGYWGQGTQVTVSS | high polyreactivity
4 | QVQLVESGGGLVQAGGSLSLSCAASARTFYGSAKGWYRQAPGKERELVAAINYSGGRTYYADSVKGRFTISRDNAKNTVYLQMNSLKAEDTAGYYCAAPRASGYYWGQGTQVTVSS | high polyreactivity
5 | QVQLVESGGGLVQAGGSLSLSCAASGFTFAFYAMGWYRQAPGKERELVAAISWDGVTTYYADSVKGRFTISRDNAKNTVYLQMNSLKPEDTAVYYCAADYPDYAGSFWPSGMYYWGQGTQVTVSS | low polyreactivity
6 | QVQLVESGGGLVQAGGSLSLSCAASGFTVKFYAMGWYRQAPGKERELVATISSRGTSTYYADSVKGRFTISRDNAKNTVYLQMNSLKPEDTAVYYCAAAWFPAYQYRYYYWGQGTQVTVSS | high polyreactivity
7 | QVQLVESGGGLVQAGGSLSLSCAASGFTYRLYTMGWYRQAPGKERELVAGISTSGGSTYYADSVKGRFTISRDNAKHTVYLQMNSLKPEDTAVYYCAAQAFTSYDYWGQGTQVTVSS | high polyreactivity
8 | QVQLVESGGGLVQAGGSLSLSCAASGGIFFIYTMGWKRQAPGKEREMVAAITSTGDTKYADSVKGRFTISRDNAKTTVYLQMNSLKPEDTAVYYCNKDNGTRGKGYDYWGQGTQVTVSS | low polyreactivity
9 | QVQLVESGGGLVQAGGSLSLSCAASGGIFFYYAMGWYRQAPGKEMELVASISYSGGSTYYADSVKGRFTISRDNAKNTVYLQMNSLKTEDTAVYYCAARTHYFPWPWYVWDYDSWGQGTQVTVSS | low polyreactivity
10 | QVQLVESGGGLVQAGGSLSLSCAASGLIFDVYAMGWYRKAPGKERELVAVISRGVSTNYPDSVKGRFTISRDNAKNTVYLQMNSLKPEDTAVYYCATDSRGYDYWGQCTQVTVSS | high polyreactivity
11 | QVQLVESGGGLVQAGGSLSLSCAASGLTFAKNAMGWYRQAPGKERELVAVITSSGGSTYYADSVKGRFTISRDNAKNTVYLQMNSLKPEDTAVYYCNVAYYDRSRSTGYEYWGQGTQVTVSS | high polyreactivity
12 | QVQLVESGGGLVQAGGSLSLSCAASGLTFFGYAIGWYRQAPGKEREVVAAISTSGTRTYYADSVKGRFTISRDNAKNTVYLQMNSLKPEDTAVYYCATVRYQEYDYWGQGTQVTVSS | high polyreactivity
13 | QVQLVESGGGLVQAGGSLSLSCAASGLTFYKNAMGWYRQAPGKERELVAVISSSGGSTYYADSVKGRFTISRDHAKNTVYLQMNSLKPEDTAVYYCARDLYTEYRWGRLTYDYWGQGTQVTVSS | low polyreactivity
14 | QVQLVESGGGLVQAGGSLSLSCAASGRIFPYNDLGWYRQAPGKERELVADINSGDSTNYADSVKGRFTISRDNAKNTVYLQMNSLKPEDTAVYYCAAGYVRYPGVIDEYWGQGTQVTVSS | low polyreactivity
15 | QVQLVESGGGLVQAGGSLSLSCAASGRIFTRYAMGWYRQAPGKERELVAAISYGGGGTYYADSVKGRFTISRDNAKNTVYLQMNSLKPEDTAVYYCATDDPLSQINEHGMDYWGQGTQVTVSS | low polyreactivity
16 | QVQLVESGGGLVQAGGSLSLSCAASGRIFTYYAMGWYRQAPGKERELVAAINWGVVTTYYADSVKGRFTISRDNAKNTVYLQMNSLKPEDTAVYYCAADWFAANYYVNPVSALDYWGQGTQVTVSS | low polyreactivity
17 | QVQLVESGGGLVQAGGSLSLSCAASGRIIDWNTMGLYRQAPGKERDLDATISWDGGTKYYADSVKGRFTISRDTAKNTVFLQMNSLKPEDTAVYYCNKSPLNFFRFRATYDYWGQGTQVTVSS | low polyreactivity
18 | QVQLVESGGGLVQAGGSLSLSCAASGRIYNYAMGWYRQAPGKERELVAAITGRGGSTYYADSVKGRFTISRDNAKNTVYLQMNSLKPEDTAVYYCARAGGPRHDWGQGTQVTVSS | high polyreactivity
19 | QVQLVESGGGLVQAGGSLSLSCAASGRNFLRNAMGWYRKAPGKERELVAAIKSGGNTYYADSVKGRFTISRDNAKITVYLQMNSLKPEYTAVYYCADRQYGFASYRMDYWGHGTQVTVSS | high polyreactivity
20 | QVQLVESGGGLVQAGGSLSLSCAASGRTFLRYAMGWYRQAPGKERELVAAISWSGGRTYYADSVKGRFTISRDNAKNSVYLQMNSLKAEDTAVYYCNNVVLYGALYYYCGQGTQVTVSS | high polyreactivity
21 | QVQLVESGGGLVQAGGSLSLSCAASGRTFSYYAMGWYRQAPGKERELVAAISRSGSITYYADSVKGRFTISRDNAKNTIYLQMNSLKPEDTAVYYCNADSSRRRYSSDYWGQGTQVTVSS | high polyreactivity
22 | QVQLVESGGGLVQAGGSLSLSCAASGSIFDVNAMGWYRQAPGKERELVAAISDSGGSTYYADSVKGRFTISRDNAKNTVHLQMNSLKAEDTAVYYCNADWSWYNYYDFDYWGQGTQVTVSS | low polyreactivity

Row | Sequence | polyreactivity (PSR sort gate)
23 | QVQLVESGGGLVQAGGSLSLSCAASGSIFHPYTMGWYRQAPGKERELVAGISQSSDSTYYADSVKGRFTISRDNAKNTVYLQMNSLKPEDTAVYYCNRDNDWPLSVVEVDYWGQGTQVTVSS | low polyreactivity
24 | QVQLVESGGGLVQAGGSLSLSCAASGSIFLRNAMGWYRPAPGKERELVAAITRVGSTYADSVKGRFTISRDNAKNTVYLQMNSLKPEDTAVYYCAAVSGVRSGPWRYDYWGQGTQVTVSS | high polyreactivity
25 | QVQLVESGGGLVQAGGSLSLSCAASGSIFPRYTMGSYRQAPGKERELVAAISRSGGSTYYADSVKGRFTISRDNAKNTVYLQMNSLKPADTAVYYCDKSRPSKYDYWGQGTQVTVSS | high polyreactivity
26 | QVQLVESGGGLVQAGGSLSLSCAASGSIFQKYTMGWYRQAPRKERELVAAITRSGGSTYYADSVKGRFTISRDNAKNTVYLQMNSLKAEDSAVYYCNKRYIPWAYDYWGQGTQVTVSS | high polyreactivity
27 | QVQLVESGGGLVQAGGSLSLSCAASGSIFRINAMGWYRQATGKERELVARISWRAGNTYYADSVKGRFTISRDNAKNTVYLQMNSLKPEDTAVYYCNADYYVTGLYGPGYDYWGQGTKVTVSS | low polyreactivity
28 | QVQLVESGGGLVQAGGSLSLSCAASGSIFTHNAMGWYRQAPGKERELVAAISSGGSTNYADSVKGRFTISRDNAKNTVYLQMNSLKPEDTAVYYCAAGTQWYSQVYIYYYGGQGTQVTVSS | low polyreactivity
29 | QVQLVESGGGLVQAGGSLSLSCAASGSIFYVNTMGWYRQAHGKERELVADISSGDSTYYADSVKGRFTISRDNAKNTVYFQMNSLKPEDTAVYFCNADVYSWVSGKEGDYWGQGTQVTVSS | low polyreactivity
30 | QVQLVESGGGLVQAGGSLSLSCAASGSILFTNAMGWYRQAPGKERELVAAISSGGSTYYADSVKGRFTISRDNAKNTVYLQMNSLKPEDTAVYYCAASDHYRWYVHRWEDPFYYWGQGTQVTLSS | low polyreactivity
31 | QVQLVESGGGLVQAGGSLSLSCAASGSNFSENTMGWYRQAPGKKRELVADITSGGSTNYADSVKGRFTISRDNAKNTVYLQMNSLKPEDTAVYYCAADYHGEYDYWGQGTLVTVSS | low polyreactivity
32 | QVQLVESGGGLVQAGGSLSLSCAASGSTFAYYAMGWYRQAPGKERELVAGITWTGGSTYYADSVKGRFTISRDNAKNTVYIQMNSLKPEDTAVYYCAVTYPISEFYWGVKDRYDYWGQCTQVTVSS | low polyreactivity
33 | QVQLVESGGGLVQAGGSLSLSCAASGSTFGSNAMGWYRQAPAKERELVAAISWSGGRTYYADSVKGRFTISRDNAKNTVYLQMNRLIPEDTAVYYCYARQFRTMGYWGQGTQVNVSS | high polyreactivity
34 | QVQLVESGGGLVQAGGSLSLSCAASGSTFSPYAMGWYRQAPGKERELVAAITGSTGSTYYADSVKGRFTISRDNAKNTVYLQMNCLKPEDTAVYYCAAVSSNAGHVSRRRGYYWGQGTQVTVSS | high polyreactivity
35 | QVQLVESGGGLVQAGGSLSLSCAASGSTFVINAMGWYRPAPRKERELLAAIRGRCVSTSYADSVKGRFTISRDIAKNTVYLQMNSLKPEDTEVYYCAADSRTGYYYWGQGTQVTVSS | high polyreactivity
36 | QVQLVESGGGLVQAGGSLSLSCAASGSTFYGYAMGWYRQAPGKERELVAAITRSGGSTYYADSVKGRFTISRDNAKNTVYLQMNSLTPEDTAVYYCAAERLYYYVYWGQGTQVTVSS | low polyreactivity
37 | QVQLVESGGGLVQAGGSLSLSCAASGSTIGPNAMGWYRQAPGKERDLVAAINTRGGSTYYADSVKGRFTISRDHANNTVYLQMNSLKPEDTAVYYCAAEYVVWYLDRFNYWGQGTQVTVSS | high polyreactivity
38 | QVQLVESGGGLVQAGGSLSLSCAASGTFYGNTMGWYRQAPGKERELVAVISIDGSTNYADSVKGRFTISRDNAKNTVYLQMNCLKPEDTAVYYCNARNQWRTVGKYDYWGQGTQVSVSS | low polyreactivity
39 | QVQLVESGGGLVQAGGSLSLSCAATAFTFTYYAMGWYRQAPGKERELVAAITYSGGTTYYADSVKGRFTISRDNAKNTVYLQMNSLKPEDTAVYYCAAVPYYVLARSFYRYGYWGQGTQVTVSS | low polyreactivity
40 | QVQLVESGGGLVQAGGSLSLSCAATGNTFYINNMGWYRQAPGKEREFVAAITWSGGPTYYADSVKGRFTISRDNAKNTVYLQMNSLKPEDTAVYYCAARRSGRWTGWTFYYWGQGTQVTVSS | high polyreactivity
41 | QVQLVESGGGLVQAGGSLSLSCAATGSIFLHNAMGWYRQAPGKERELVAVITSRGGSTYYADSVKGRFTISRDNAKNTVYLQMNSLKPEDTAVYYCAAPAYHKRTSRGDYWGQGTQVTVSS | low polyreactivity
42 | QVQLVESGGGLVQAGGSLSLSCADSGSTIYRYAMGWNRQAPGKEREFVATISRSGGGTYYADSEKGRLTISRDNAMNTVYLQMISLKPEDTSVYYCAARDVVQAGYYVKKYDYWGQGTQVTVSS | high polyreactivity
43 | QVQLVESGGGLVQAGGSLSLSCASTGFIITQNAMGWYRQAHGKERYLVAAISWRAGSTYYADSVKGRFTISRDNAKNTVYLQMNSLKPEDTAVYYCATRQTKYSNYRGDYWGQGTQVTVSS | high polyreactivity
